Reference: PMC2824762, “Analysis of the role of PCNA-DNA contacts during clamp loading” (BMC Structural Biology, 2010)

Legend:
[1] = target: T1, RFC (Replication Factor C clamp loader);PCNA K20A/K77A/R80A/R149A (Saccharomyces cerevisiae;Saccharomyces …, UniProt P38630;P40348;P38629;P40339;P38251;P15873 1-861;1-353;2-340;1-323;1-354;1-258, |K20A;K77A;R80A;R149A); test: fluorescence anisotropy; RFC titrated; 1 uM mutant PCNA, 1 mM ATPgS, 10 mM MgCl2; Anisotropy: 30 mM Tris pH 7.5, 200 mM NaCl, 2 mM DTT, 1 mM ATPgS, 10 mM MgCl2, 100 nM TAMRA-DNA, 1 uM PCNA, 25 C. Crystals: 100 mM Na acetate pH 4.6, 100 mM NaCl, 14% PEG 4K, 20 C; conditions: protein: recombinant;recombinant; tags: ;N-terminal 6-His, PreScission-cleaved; copies: 1;1;1;1;1;3; label: TAMRA at 5' end of template strand; 5' overhang 10 nt on template (3' recessed primer), 30 bp duplex
[2] = target: T2, RFC (Replication Factor C clamp loader);PCNA wild-type (Saccharomyces cerevisiae;Saccharomyces …, UniProt P38630;P40348;P38629;P40339;P38251;P15873 1-861;1-353;2-340;1-323;1-354;1-258, |); test: fluorescence anisotropy; RFC titrated; 1 uM PCNA, 1 mM ATPgS, 10 mM MgCl2; Anisotropy: 30 mM Tris pH 7.5, 200 mM NaCl, 2 mM DTT, 1 mM ATPgS, 10 mM MgCl2, 100 nM TAMRA-DNA, 1 uM PCNA, 25 C. Crystals: 100 mM Na acetate pH 4.6, 100 mM NaCl, 14% PEG 4K, 20 C; conditions: protein: recombinant;recombinant; tags: ;N-terminal 6-His, PreScission-cleaved; copies: 1;1;1;1;1;3; label: TAMRA at 5' end of template strand; 5' overhang 10 nt on template (3' recessed primer), 30 bp duplex
[3] = target: T1, RFC (Replication Factor C clamp …); test: fluorescence anisotropy; RFC titrated; 1 uM mutant PCNA, 1 mM ATPgS, 10 mM MgCl2; affinity changes little vs wild-type PCNA; Kd only in figure; Anisotropy: 30 mM Tris pH 7.5, 200 mM NaCl, 2 mM DTT, 1 mM ATPgS, 10 mM MgCl2, 100 nM TAMRA-DNA, 1 uM PCNA, 25 C. Crystals: 100 mM Na acetate pH 4.6, 100 mM NaCl, 14% PEG 4K, 20 C; conditions: protein: recombinant;recombinant; tags: ;N-terminal 6-His, PreScission-cleaved; copies: 1;1;1;1;1;3; label: TAMRA at 5' end of template strand; 5' overhang 10 nt on template (3' recessed primer), 13 bp duplex
[4] = target: T2, RFC (Replication Factor C clamp …); test: fluorescence anisotropy; RFC titrated; 1 uM PCNA, 1 mM ATPgS, 10 mM MgCl2; Kd only in figure; Anisotropy: 30 mM Tris pH 7.5, 200 mM NaCl, 2 mM DTT, 1 mM ATPgS, 10 mM MgCl2, 100 nM TAMRA-DNA, 1 uM PCNA, 25 C. Crystals: 100 mM Na acetate pH 4.6, 100 mM NaCl, 14% PEG 4K, 20 C; conditions: protein: recombinant;recombinant; tags: ;N-terminal 6-His, PreScission-cleaved; copies: 1;1;1;1;1;3; label: TAMRA at 5' end of template strand; 5' overhang 10 nt on template (3' recessed primer), 13 bp duplex
[5] = target: single-chain PCNA (three fused PCNA subunits) (Saccharomyces cerevisiae, UniProt P15873;P15873;P15873 1-257;2-257;2-258, R110S;Y114S); test: X-ray crystallography; 3.0 A; DNA tilted ~40 deg, partly disordered, refined as rigid body; pH 4.6; Anisotropy: 30 mM Tris pH 7.5, 200 mM NaCl, 2 mM DTT, 1 mM ATPgS, 10 mM MgCl2, 100 nM TAMRA-DNA, 1 uM PCNA, 25 C. Crystals: 100 mM Na acetate pH 4.6, 100 mM NaCl, 14% PEG 4K, 20 C; conditions: protein: recombinant; tags: N-terminal 6-His, PreScission-cleavable; copies: 1;1;1; label: Cy5 at 5' end of primer strand; 5' overhang 4 nt on template, 10 bp duplex
[6] = target: the molecule itself; test: crystal structure; single-chain PCNA (three subunits joined on one chain) with a 10-base pair DNA; hanging drop, 100 mM Na acetate pH 4.6, 100 mM NaCl, 14% PEG 4K, 20°C; space group P2(1)2(1)2(1); 3.0 Å

single-chain PCNA (three fused PCNA subunits), sequence (P15873 2-257 R110S/Y114S, one chain of several): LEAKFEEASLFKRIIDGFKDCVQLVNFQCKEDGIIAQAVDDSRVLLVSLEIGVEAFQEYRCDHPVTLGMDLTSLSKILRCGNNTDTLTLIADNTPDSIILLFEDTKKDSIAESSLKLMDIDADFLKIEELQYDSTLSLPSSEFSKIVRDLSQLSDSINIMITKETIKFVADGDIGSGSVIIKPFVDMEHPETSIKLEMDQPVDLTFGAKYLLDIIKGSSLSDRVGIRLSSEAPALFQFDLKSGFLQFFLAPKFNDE

B1: DNA-30 (dsDNA)
DNA 1: GAGCATTCAAGGACTTAGGTCTGTATTTATCTACCCACAA
DNA 2: TTGTGGGTAGATAAATACAGACCTAAGTCC
binding signal [1]: ~5 fold weaker Kd than with wild-type PCNA (nearly 5) | Kd [2]: ~100 nM

B2: DNA-13 (dsDNA)
DNA 1: GAGCATTCAAGGACTTAGGTCTG
DNA 2: CAGACCTAAGTCC
binding result [3]: binds | binding result [4]: binds

B3: crystallization primer-template DNA (dsDNA)
DNA 1: TTTTATACGATGGG
DNA 2: CCCATCGTAT
binding result [5]: binds

B4: S. cerevisiae Proliferating Cell Nuclear Antigen (PCNA), wild type (natural protein)
chain: MLEAKFEEASLFKRIIDGFKDCVQLVNFQCKEDGIIAQAVDDSRVLLVSLEIGVEAFQEYRCDHPVTLGMDLTSLSKILRCGNNTDTLTLIADNTPDSIILLFEDTKKDRIAEYSLKLMDIDADFLKIEELQYDSTLSLPSSEFSKIVRDLSQLSDSINIMITKETIKFVADGDIGSGSVIIKPFVDMEHPETSIKLEMDQPVDLTFGAKYLLDIIKGSSLSDRVGIRLSSEAPALFQFDLKSGFLQFFLAPKFNDEE
notes: PCNA, S. cerevisiae; The subunit-with-subunit row from the single-chain PCNA structure is also written on this molecule; also called wild-type PCNA; yeast PCNA; source: E. coli BL21(DE3), purified (HisTrap FF, PreScission protease, HiTrap Q HP); not shown: His6, N-terminal, cleaved
stoichiometry N [6]: 3
